The sequences below were run on Escherichia coli TOP10 (assay: shrunken log2 fold change of peptide-encoding DNA abundance (4.5 h post-induction vs induction); higher = less antimicrobial activity (less host growth inhibition)). Details: time post-induction: 4.5 h; library: site-saturation at positions 5, 18, 19, 20.
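Further: peptides expressed intracellularly from a pBAD plasmid library in pooled LB shake-flask culture, induced with 0.3% L-arabinose, DNA abundance read by NGS, three biological replicates, DESeq2 with apeglm shrinkage.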

| Sequence | shrunken log2 fold change |
| --- | --- |
| RRIRIRPPRLPRPRPRPDEAPRP | 0.0301 |
| RRIRIRPPRLPRPRPRPDEYPRP | 0.0287 |
| RRIRIRPPRLPRPRPRPDGRPRP | -0.13 |
| RRIRIRPPRLPRPRPRPDGVPRP | -0.0166 |
| RRIRIRPPRLPRPRPRPDHKPRP | -0.413 |
| RRIRIRPPRLPRPRPRPDIFPRP | -0.828 |
| RRIRIRPPRLPRPRPRPDIIPRP | -0.0935 |
| RRIRIRPPRLPRPRPRPDISPRP | -0.0405 |
| RRIRIRPPRLPRPRPRPDKEPRP | -0.0239 |
| RRIRIRPPRLPRPRPRPDLAPRP | -0.169 |
| RRIRIRPPRLPRPRPRPDLFPRP | -0.103 |
| RRIRIRPPRLPRPRPRPDLIPRP | -0.217 |
| RRIRIRPPRLPRPRPRPDMNPRP | -0.146 |
| RRIRIRPPRLPRPRPRPDMSPRP | -0.00804 |
| RRIRIRPPRLPRPRPRPDMTPRP | -0.01 |
| RRIRIRPPRLPRPRPRPDNCPRP | -0.162 |
| RRIRIRPPRLPRPRPRPDNTPRP | -0.947 |
| RRIRIRPPRLPRPRPRPDPQPRP | -0.186 |
| RRIRIRPPRLPRPRPRPDQPPRP | 0.022 |
| RRIRIRPPRLPRPRPRPDQTPRP | 0.000407 |
| RRIRIRPPRLPRPRPRPDSKPRP | -0.325 |
| RRIRIRPPRLPRPRPRPDSPPRP | -0.0466 |
| RRIRIRPPRLPRPRPRPDTWPRP | -0.239 |
| RRIRIRPPRLPRPRPRPDVVPRP | -0.0365 |
| RRIRIRPPRLPRPRPRPDWRPRP | 0.194 |

| Sequence | shrunken log2 fold change |
| --- | --- |
| RRIRIRPPRLPRPRPRPDYPPRP | -0.584 |
| RRIRIRPPRLPRPRPRPEAKPRP | 0.0733 |
| RRIRIRPPRLPRPRPRPEARPRP | 0.312 |
| RRIRIRPPRLPRPRPRPECCPRP | 0.0559 |
| RRIRIRPPRLPRPRPRPECIPRP | -0.0632 |
| RRIRIRPPRLPRPRPRPEEFPRP | -0.0304 |
| RRIRIRPPRLPRPRPRPEEKPRP | 0.461 |
| RRIRIRPPRLPRPRPRPEEPPRP | -0.0444 |
| RRIRIRPPRLPRPRPRPEGKPRP | -0.0199 |
| RRIRIRPPRLPRPRPRPEHEPRP | -0.434 |
| RRIRIRPPRLPRPRPRPEHYPRP | -0.295 |
| RRIRIRPPRLPRPRPRPEIDPRP | -0.157 |
| RRIRIRPPRLPRPRPRPEIFPRP | -0.0951 |
| RRIRIRPPRLPRPRPRPEIWPRP | -0.18 |
| RRIRIRPPRLPRPRPRPEKMPRP | -0.165 |
| RRIRIRPPRLPRPRPRPELAPRP | 0.254 |
| RRIRIRPPRLPRPRPRPEMCPRP | 0.0321 |
| RRIRIRPPRLPRPRPRPENHPRP | -0.143 |
| RRIRIRPPRLPRPRPRPENYPRP | -0.405 |
| RRIRIRPPRLPRPRPRPEPKPRP | 0.475 |
| RRIRIRPPRLPRPRPRPEPYPRP | 0.0464 |
| RRIRIRPPRLPRPRPRPEQNPRP | -0.204 |
| RRIRIRPPRLPRPRPRPERFPRP | -0.0158 |
| RRIRIRPPRLPRPRPRPERMPRP | -0.0641 |
| RRIRIRPPRLPRPRPRPETLPRP | -0.102 |

| Sequence | shrunken log2 fold change |
| --- | --- |
| RRIRIRPPRLPRPRPRPETNPRP | -0.264 |
| RRIRIRPPRLPRPRPRPETPPRP | 0.207 |
| RRIRIRPPRLPRPRPRPEVCPRP | 0.503 |
| RRIRIRPPRLPRPRPRPEWEPRP | 0.068 |
| RRIRIRPPRLPRPRPRPEWTPRP | -0.0261 |
| RRIRIRPPRLPRPRPRPEYFPRP | -0.0312 |
| RRIRIRPPRLPRPRPRPEYKPRP | -0.978 |
| RRIRIRPPRLPRPRPRPFCFPRP | -0.33 |
| RRIRIRPPRLPRPRPRPFCHPRP | -0.302 |
| RRIRIRPPRLPRPRPRPFCLPRP | -0.739 |
| RRIRIRPPRLPRPRPRPFCNPRP | -0.553 |
| RRIRIRPPRLPRPRPRPFDHPRP | -0.225 |
| RRIRIRPPRLPRPRPRPFDKPRP | -0.177 |
| RRIRIRPPRLPRPRPRPFEEPRP | -0.569 |
| RRIRIRPPRLPRPRPRPFEPPRP | -0.204 |
| RRIRIRPPRLPRPRPRPFGLPRP | -0.129 |
| RRIRIRPPRLPRPRPRPFHWPRP | 0.0373 |
| RRIRIRPPRLPRPRPRPFIQPRP | -0.551 |
| RRIRIRPPRLPRPRPRPFKCPRP | 0.000802 |
| RRIRIRPPRLPRPRPRPFKLPRP | -0.597 |
| RRIRIRPPRLPRPRPRPFKSPRP | -0.023 |
| RRIRIRPPRLPRPRPRPFLFPRP | -0.586 |
| RRIRIRPPRLPRPRPRPFLGPRP | 0.00585 |
| RRIRIRPPRLPRPRPRPFNAPRP | -0.551 |
| RRIRIRPPRLPRPRPRPFNQPRP | -0.977 |

| Sequence | shrunken log2 fold change |
| --- | --- |
| RRIRIRPPRLPRPRPRPFQDPRP | 0.0408 |
| RRIRIRPPRLPRPRPRPFQWPRP | -0.192 |
| RRIRIRPPRLPRPRPRPFRHPRP | -0.219 |
| RRIRIRPPRLPRPRPRPFRKPRP | -0.169 |
| RRIRIRPPRLPRPRPRPFRRPRP | 0.017 |
| RRIRIRPPRLPRPRPRPFSIPRP | -0.643 |
| RRIRIRPPRLPRPRPRPFSWPRP | 0.0705 |
| RRIRIRPPRLPRPRPRPFTFPRP | -0.148 |
| RRIRIRPPRLPRPRPRPFVDPRP | -0.65 |
| RRIRIRPPRLPRPRPRPFVKPRP | -0.691 |
| RRIRIRPPRLPRPRPRPFWGPRP | -0.139 |
| RRIRIRPPRLPRPRPRPFYCPRP | -0.633 |
| RRIRIRPPRLPRPRPRPFYHPRP | -0.594 |
| RRIRIRPPRLPRPRPRPFYLPRP | -0.882 |
| RRIRIRPPRLPRPRPRPFYMPRP | -0.235 |
| RRIRIRPPRLPRPRPRPGAFPRP | -0.294 |
| RRIRIRPPRLPRPRPRPGDIPRP | -0.0899 |
| RRIRIRPPRLPRPRPRPGDKPRP | -0.218 |
| RRIRIRPPRLPRPRPRPGEPPRP | -0.0228 |
| RRIRIRPPRLPRPRPRPGESPRP | -0.0125 |
| RRIRIRPPRLPRPRPRPGFMPRP | -0.487 |
| RRIRIRPPRLPRPRPRPGFRPRP | 0.0935 |
| RRIRIRPPRLPRPRPRPGGFPRP | 0.179 |
| RRIRIRPPRLPRPRPRPGHDPRP | 0.144 |
| RRIRIRPPRLPRPRPRPGITPRP | -0.182 |

| Sequence | shrunken log2 fold change |
| --- | --- |
| RRIRIRPPRLPRPRPRPGKNPRP | -0.597 |
| RRIRIRPPRLPRPRPRPGLEPRP | -0.0336 |
| RRIRIRPPRLPRPRPRPGLLPRP | -0.0591 |
| RRIRIRPPRLPRPRPRPGNHPRP | -0.227 |
| RRIRIRPPRLPRPRPRPGNTPRP | -0.546 |
| RRIRIRPPRLPRPRPRPGPCPRP | 0.255 |
| RRIRIRPPRLPRPRPRPGPKPRP | 0.00436 |
| RRIRIRPPRLPRPRPRPGQHPRP | -0.0183 |
| RRIRIRPPRLPRPRPRPGQPPRP | 0.0462 |
| RRIRIRPPRLPRPRPRPGRRPRP | 0.18 |
| RRIRIRPPRLPRPRPRPGSLPRP | -0.475 |
| RRIRIRPPRLPRPRPRPGTGPRP | 0.0659 |
| RRIRIRPPRLPRPRPRPGWFPRP | -0.141 |
| RRIRIRPPRLPRPRPRPGWSPRP | 0.312 |
| RRIRIRPPRLPRPRPRPHEHPRP | -0.405 |
| RRIRIRPPRLPRPRPRPHEPPRP | -0.129 |
| RRIRIRPPRLPRPRPRPHETPRP | 0.0188 |
| RRIRIRPPRLPRPRPRPHFSPRP | -0.181 |
| RRIRIRPPRLPRPRPRPHINPRP | -0.853 |
| RRIRIRPPRLPRPRPRPHKLPRP | -0.552 |
| RRIRIRPPRLPRPRPRPHKPPRP | -0.00445 |
| RRIRIRPPRLPRPRPRPHLHPRP | -0.784 |
| RRIRIRPPRLPRPRPRPHLRPRP | -0.00802 |
| RRIRIRPPRLPRPRPRPHLWPRP | -0.256 |
| RRIRIRPPRLPRPRPRPHMWPRP | -0.321 |

| Sequence | shrunken log2 fold change |
| --- | --- |
| RRIRIRPPRLPRPRPRPHPFPRP | -0.583 |
| RRIRIRPPRLPRPRPRPHPHPRP | -0.496 |
| RRIRIRPPRLPRPRPRPHQDPRP | -0.122 |
| RRIRIRPPRLPRPRPRPHRSPRP | 0.0394 |
| RRIRIRPPRLPRPRPRPHRTPRP | -0.125 |
| RRIRIRPPRLPRPRPRPHRYPRP | -0.171 |
| RRIRIRPPRLPRPRPRPHSNPRP | -0.502 |
| RRIRIRPPRLPRPRPRPHTGPRP | -0.356 |
| RRIRIRPPRLPRPRPRPHTPPRP | -0.721 |
| RRIRIRPPRLPRPRPRPHVMPRP | -0.492 |
| RRIRIRPPRLPRPRPRPHWGPRP | -0.175 |
| RRIRIRPPRLPRPRPRPHWYPRP | -1.16 |
| RRIRIRPPRLPRPRPRPHYKPRP | -0.756 |
| RRIRIRPPRLPRPRPRPHYMPRP | -0.943 |
| RRIRIRPPRLPRPRPRPHYPPRP | -0.32 |
| RRIRIRPPRLPRPRPRPIARPRP | 0.136 |
| RRIRIRPPRLPRPRPRPIDEPRP | 0.0184 |
| RRIRIRPPRLPRPRPRPIFDPRP | -0.237 |
| RRIRIRPPRLPRPRPRPIFLPRP | -0.416 |
| RRIRIRPPRLPRPRPRPIHDPRP | 2.93 |
| RRIRIRPPRLPRPRPRPIHGPRP | -0.0135 |
| RRIRIRPPRLPRPRPRPIIEPRP | -0.0807 |
| RRIRIRPPRLPRPRPRPIKGPRP | -0.068 |
| RRIRIRPPRLPRPRPRPINFPRP | -0.346 |
| RRIRIRPPRLPRPRPRPINRPRP | -0.312 |

— the supplement of paper PMC9112550, “Optimization of the antimicrobial peptide Bac7 by deep mutational scanning” (BMC Biology, 2022)
